Laboratory results: patent US10920254B2, “Methods and materials for producing 5 and 7-carbon monomers” (INVISTA North America S.á.r.l., priority 2015, dated 2021)

B1: SEQ ID NO: 5: Mycobacterium massiliense carboxylate reductase, N-terminal HIS tagged (protein, listed as Mycobacterium abscessus)
chain: MTNETNPQQEQLSRRIESLRESDPQFRAAQPDPAVAEQVLRPGLHLSEAIAALMTGYAERPALGERARELVIDQDGRTTLRLLPRFDTTTYGELWSRTTSVAAAWHHDATHPVKAGDLVATLGFTSIDYTVLDLAIMILGGVAVPLQTSAPASQWTTILAEAEPNTLAVSIELIGAAMESVRATPSIKQVVVFDYTPEVDDQREAFEAASTQLAGTGIALETLDAVIARGAALPAAPLYAPSAGDDPLALLIYTSGSTGAPKGAMHSENIVRRWWIREDVMAGTENLPMIGLNFMPMSHIMGRGTLTSTLSTGGTGYFAASSDMSTLFEDMELIRPTALALVPRVCDMVFQRFQTEVDRRLASGDTASAEAVAAEVKADIRDNLFGGRVSAVMVGSAPLSEELGEFIESCFELNLTDGYGSTEAGMVFRDGIVQRPPVIDYKLVDVPELGYFSTDKPHPRGELLLKTDGMFLGYYKRPEVTASVFDADGFYMTGDIVAELAHDNIEIIDRRNNVLKLSQGEFVAVATLEAEYANSPVVHQIYVYGSSERSYLLAVVVPTPEAVAAAKGDAAALKTTIADSLQDIAKEIQLQSYEVPRDFIIEPQPFTQGNGLLTGIAKLARPNLKAHYGPRLEQMYAEIAEQQAAELRALHGVDPDKPALETVLKAAQALLGVSSAELAADAHFTDLGGDSLSALSFSDLLRDIFAVEVPVGVIVSAANDLGGVAKFVDEQRHSGGTRPTAETVHGAGHTEIRAADLTLDKFIDEATLHAAPSLPKAAGIPHTVLLTGSNGYLGHYLALEWLERLDKTDGKLIVIVRGKNAEAAYGRLEEAFDTGDTELLAHFRSLADKHLEVLAGDIGDPNLGLDADTWQRLADTVDVIVHPAALVNHVLPYNQLFGPNVVGTAEIIKLAITTKIKPVTYLSTVAVAAYVDPTTFDEESDIRLISAVRPIDDGYANGYGNAKWAGEVLLREAHDLCGLPVAVFRSDMILAHSRYTGQLNVPDQFTRLILSLIATGIAPGSFYQAQTTGERPLAHYDGLPGDFTAEAITTLGTQVPEGSEGFVTYDCVNPHADGISLDNFVDWLIEAGYPIARIDNYTEWFTRFDTAIRGLSEKQKQHSLLPLLHAFEQPSAAENHGVVPAKRFQHAVQAAGIGPVGQDGTTDIPHLSRRLIVKYAKDLEQLGLL
modifications: N-terminal His tag; Mycobacterium abscessus subsp. bolletii
notes: Mycobacterium massiliense carboxylate reductase, N-terminal HIS tagged
B2: SEQ ID NO: 3: Mycobacterium smegmatis carboxylate reductase, N-terminal HIS tagged (protein, listed as Mycobacterium smegmatis)
chain: MTSDVHDATDGVTETALDDEQSTRRIAELYATDPEFAAAAPLPAVVDAAHKPGLRLAEILQTLFTGYGDRPALGYRARELATDEGGRTVTRLLPRFDTLTYAQVWSRVQAVAAALRHNFAQPIYPGDAVATIGFASPDYLTLDLVCAYLGLVSVPLQHNAPVSRLAPILAEVEPRILTVSAEYLDLAVESVRDVNSVSQLVVFDHHPEVDDHRDALARAREQLAGKGIAVTTLDAIADEGAGLPAEPIYTADHDQRLAMILYTSGSTGAPKGAMYTEAMVARLWTMSFITGDPTPVINVNFMPLNHLGGRIPISTAVQNGGTSYFVPESDMSTLFEDLALVRPTELGLVPRVADMLYQHHLATVDRLVTQGADELTAEKQAGAELREQVLGGRVITGFVSTAPLAAEMRAFLDITLGAHIVDGYGLTETGAVTRDGVIVRPPVIDYKLIDVPELGYFSTDKPYPRGELLVRSQTLTPGYYKRPEVTASVFDRDGYYHTGDVMAETAPDHLVYVDRRNNVLKLAQGEFVAVANLEAVFSGAALVRQIFVYGNSERSFLLAVVVPTPEALEQYDPAALKAALADSLQRTARDAELQSYEVPADFIVETEPFSAANGLLSGVGKLLRPNLKDRYGQRLEQMYADIAATQANQLRELRRAAATQPVIDTLTQAAATILGTGSEVASDAHFTDLGGDSLSALTLSNLLSDFFGFEVPVGTIVNPATNLAQLAQHIEAQRTAGDRRPSFTTVHGADATEIRASELTLDKFIDAETLRAAPGLPKVTTEPRTVLLSGANGWLGRFLTLQWLERLAPVGGTLITIVRGRDDAAARARLTQAYDTDPELSRRFAELADRHLRVVAGDIGDPNLGLTPEIWHRLAAEVDLVVHPAALVNHVLPYRQLFGPNVVGTAEVIKLALTERIKPVTYLSTVSVAMGIPDFEEDGDIRTVSPVRPLDGGYANGYGNSKWAGEVLLREAHDLCGLPVATFRSDMILAHPRYRGQVNVPDMFTRLLLSLLITGVAPRSFYIGDGERPRAHYPGLTVDFVAEAVTTLGAQQREGYVSYDVMNPHDDGISLDVFVDWLIRAGHPIDRVDDYDDWVRRFETALTALPEKRRAQTVLPLLHAFRAPQAPLRGAPEPTEVFHAAVRTAKVGPGDIPHLDEALIDKYIRDLREFGLI
modifications: N-terminal His tag
notes: Mycobacterium smegmatis carboxylate reductase, N-terminal HIS tagged
B3: SEQ ID NO: 9: Pseudomonas syringae ω-transaminase, N-terminal HIS tagged (protein, listed as Pseudomonas syringae)
chain: MSANNPQTLEWQALSSEHHLAPFSDYKQLKEKGPRIITRAEGVYLWDSEGNKILDGMSGLWCVAIGYGREELADAASKQMRELPYYNLFFQTAHPPVLELAKAISDIAPEGMNHVFFTGSGSEGNDTMLRMVRHYWALKGQPNKKTIISRVNGYHGSTVAGASLGGMTYMHEQGDLPIPGVVHIPQPYWFGEGGDMTPDEFGIWAAEQLEKKILELGVENVGAFIAEPIQGAGGVIVPPDSYWPKIKEILSRYDILFAADEVICGFGRTSEWFGSDFYGLRPDMMTIAKGLTSGYVPMGGLIVRDEIVAVLNEGGDFNHGFTYSGHPVAAAVALENIRILREEKIVERVRSETAPYLQKRLRELSDHPLVGEVRGVGLLGAIELVKDKTTRERYTDKGAGMICRTFCFDNGLIMRAVGDTMIIAPPLVISFAQIDELVEKARTCLDLTLAVLQG
modifications: N-terminal His tag
notes: Pseudomonas syringae ω-transaminase, N-terminal HIS tagged

Tests used:
Type in all cases: biochemical
[1] = carboxylate reductase enzyme activity assay (N7-acetyl-7-aminoheptanoate to N7-acetyl-7-aminoheptanal), NADPH consumption at 340 nm; details: purified enzyme enhanced by gene product of sfp; 2 mM N7-acetyl-7-aminoheptanoate, 1 mM ATP, 1 mM NADPH, pH 7.5, room temperature, 20 min; FIG. 10
Procedure: The activity of each of the N-terminal His-tagged carboxylate reductases of SEQ ID NOs: 3, 5, and 6 (see Examples 2 and 3, and FIG. 6B, FIGS. 6D-6E) for converting N7-acetyl-7-aminoheptanoate to N7-acetyl-7-aminoheptanal was assayed in triplicate in a buffer composed of a final concentration of 50 mM HEPES buffer (pH=7.5), 2 mM N7-acetyl-7-aminoheptanoate, 10 mM MgCl2, 1 mM ATP, and 1 mM NADPH. The assays were initiated by adding purified carboxylate reductase and phosphopantetheine transferase or the empty vector control to the assay buffer containing the N7-acetyl-7-aminoheptanoate then incubated at room temperature for 20 min. The consumption of NADPH was monitored by absorbance at 340 nm.

[2] = ω-transaminase enzyme activity assay (7-aminoheptanol to 7-oxoheptanol), L-alanine formation by RP-HPLC
Procedure: A nucleotide sequence encoding an N-terminal His-tag was added to the Chromobacterium violaceum, Pseudomonas syringae, and Rhodobacter sphaeroides nucleic acids encoding the ω-transaminases of SEQ ID NOs: 7, 9 and 10, respectively (see FIGS. 6E-6F), such that N-terminal HIS tagged ω-transaminases could be produced. The modified genes were cloned into a pET21a expression vector under the T7 promoter. Each expression vector was transformed into a BL21[DE3] E. coli host. Each resulting recombinant E. coli strain was cultivated at 37° C. in a 250 mL shake flask culture containing 50 mL LB media and antibiotic selection pressure, with shaking at 230 rpm. Each culture was induced overnight at 16° C. using 1 mM IPTG.
(§1) The pellet from each induced shake flask culture was harvested via centrifugation. Each pellet was resuspended and lysed via sonication. The cell debris was separated from the supernatant via centrifugation and the cell free extract was used immediately in enzyme activity assays.
(§2) Enzyme activity assays in the reverse direction (i.e., 7-aminoheptanol to 7-oxoheptanol) were performed in a buffer composed of a final concentration of 50 mM HEPES buffer (pH=7.5), 10 mM 7-aminoheptanol, 10 mM pyruvate, and 100 μM pyridoxyl 5′ phosphate. Each enzyme activity assay reaction was initiated by adding cell free extract of the ω-transaminase gene product or the empty vector control to the assay buffer containing the 7-aminoheptanol and then incubated at 25° C. for 4 h, with shaking at 250 rpm. The formation of L-alanine was quantified via RP-HPLC.

[3] = ω-transaminase enzyme activity assay, forward direction (pimelate semialdehyde to 7-aminoheptanoate), pyruvate formation by RP-HPLC
Procedure: (§3) A nucleotide sequence encoding an N-terminal His-tag was added to the nucleic acid sequences from Chromobacterium violaceum, Pseudomonas syringae, Rhodobacter sphaeroides, and Vibrio fluvialis encoding the ω-transaminases of SEQ ID NOs: 7, 9, 10, and 12, respectively (see FIGS. 6E-6F) such that N-terminal HIS tagged ω-transaminases could be produced. Each of the resulting modified genes was cloned into a pET21a expression vector under control of the T7 promoter and each expression vector was transformed into a BL21[DE3] E. coli host. The resulting recombinant E. coli strains were cultivated at 37° C. in a 250 mL shake flask culture containing 50 mL LB media and antibiotic selection pressure, with shaking at 230 rpm. Each culture was induced overnight at 16° C. using 1 mM IPTG.
as §1
Enzyme activity in the forward direction (i.e., pimelate semialdehyde to 7-aminoheptanoate) was confirmed for the transaminases of SEQ ID NO: 9, SEQ ID NO: 10, and SEQ ID NO: 12. Enzyme activity assays were performed in a buffer composed of a final concentration of 50 mM HEPES buffer (pH=7.5), 10 mM pimelate semialdehyde, 10 mM L-alanine, and 100 μM pyridoxyl 5′ phosphate. Each enzyme activity assay reaction was initiated by adding a cell free extract of the ω-transaminase gene product or the empty vector control to the assay buffer containing the pimelate semialdehyde and incubated at 25° C. for 4 h, with shaking at 250 rpm. The formation of pyruvate was quantified via RP-HPLC.

[4] = ω-transaminase enzyme activity assay, reverse direction (7-aminoheptanoate to pimelate semialdehyde), L-alanine formation by RP-HPLC; details: cell free extract; 10 mM 7-aminoheptanoate, 10 mM pyruvate, pH 7.5, 25° C., 4 h; FIG. 13
Procedure: as §3, §1
as §2, with “7-aminoheptanoate” for “7-aminoheptanol”, “pimelate semialdehyde)” for “7-oxoheptanol)”, “7-aminoheptanoate,” for “7-aminoheptanol,”, “and” for “and then”, “L-alanine from pyruvate” for “L-alanine”

| Molecule | acceptance of N7-acetyl-7-aminoheptanoate as substrate (NADPH consumption), confirmed against the empty vector control [1] | acceptance of 7-aminoheptanol as substrate (conversion of pyruvate to L-alanine), confirmed against the empty vector control ([2]; cell free extract, 10 mM 7-aminoheptanol, 10 mM pyruvate, pH 7.5, 25° C., 4 h, FIG. 17) | acceptance of 7-oxoheptanol as substrate forming 7-aminoheptanol ([2]; concluded from the reversibility of the ω-transaminase activity (Example 1)) | acceptance of pimelate semialdehyde as substrate (conversion of L-alanine to pyruvate), confirmed against the empty vector control ([3]; cell free extract, 10 mM pimelate semialdehyde, 10 mM L-alanine, pH 7.5, 25° C., 4 h, FIG. 14) | reversibility of the ω-transaminase activity: pimelate semialdehyde accepted, 7-aminoheptanoate synthesized ([3]; conclusion from forward and reverse direction assays of Example 1) | acceptance of 7-aminoheptanoate as substrate (conversion of pyruvate to L-alanine), confirmed against the empty vector control [4] |
| --- | --- | --- | --- | --- | --- | --- |
| B1 | accepted N7-acetyl-7-aminoheptanoate as substrate | – | – | – | – | – |
| B2 | accepted N7-acetyl-7-aminoheptanoate as substrate | – | – | – | – | – |
| B3 | – | accepted 7-aminoheptanol as substrate | accept 7-oxoheptanol as substrate and form 7-aminoheptanol | accepted pimelate semialdehyde as substrate | accepted pimelate semialdehyde as substrate and synthesized 7-aminoheptanoate as a reaction product | accepted 7-aminoheptanote as substrate |
